Target: T1, biotin-MBP-NLRP1 M1184V (Avi-MBP-tev-NLRP1 M1184V) (human, UniProt Q9C000 1-1473, M1184V, biotin (on the Avi tag, BirA co-expressed))
T1 sequence: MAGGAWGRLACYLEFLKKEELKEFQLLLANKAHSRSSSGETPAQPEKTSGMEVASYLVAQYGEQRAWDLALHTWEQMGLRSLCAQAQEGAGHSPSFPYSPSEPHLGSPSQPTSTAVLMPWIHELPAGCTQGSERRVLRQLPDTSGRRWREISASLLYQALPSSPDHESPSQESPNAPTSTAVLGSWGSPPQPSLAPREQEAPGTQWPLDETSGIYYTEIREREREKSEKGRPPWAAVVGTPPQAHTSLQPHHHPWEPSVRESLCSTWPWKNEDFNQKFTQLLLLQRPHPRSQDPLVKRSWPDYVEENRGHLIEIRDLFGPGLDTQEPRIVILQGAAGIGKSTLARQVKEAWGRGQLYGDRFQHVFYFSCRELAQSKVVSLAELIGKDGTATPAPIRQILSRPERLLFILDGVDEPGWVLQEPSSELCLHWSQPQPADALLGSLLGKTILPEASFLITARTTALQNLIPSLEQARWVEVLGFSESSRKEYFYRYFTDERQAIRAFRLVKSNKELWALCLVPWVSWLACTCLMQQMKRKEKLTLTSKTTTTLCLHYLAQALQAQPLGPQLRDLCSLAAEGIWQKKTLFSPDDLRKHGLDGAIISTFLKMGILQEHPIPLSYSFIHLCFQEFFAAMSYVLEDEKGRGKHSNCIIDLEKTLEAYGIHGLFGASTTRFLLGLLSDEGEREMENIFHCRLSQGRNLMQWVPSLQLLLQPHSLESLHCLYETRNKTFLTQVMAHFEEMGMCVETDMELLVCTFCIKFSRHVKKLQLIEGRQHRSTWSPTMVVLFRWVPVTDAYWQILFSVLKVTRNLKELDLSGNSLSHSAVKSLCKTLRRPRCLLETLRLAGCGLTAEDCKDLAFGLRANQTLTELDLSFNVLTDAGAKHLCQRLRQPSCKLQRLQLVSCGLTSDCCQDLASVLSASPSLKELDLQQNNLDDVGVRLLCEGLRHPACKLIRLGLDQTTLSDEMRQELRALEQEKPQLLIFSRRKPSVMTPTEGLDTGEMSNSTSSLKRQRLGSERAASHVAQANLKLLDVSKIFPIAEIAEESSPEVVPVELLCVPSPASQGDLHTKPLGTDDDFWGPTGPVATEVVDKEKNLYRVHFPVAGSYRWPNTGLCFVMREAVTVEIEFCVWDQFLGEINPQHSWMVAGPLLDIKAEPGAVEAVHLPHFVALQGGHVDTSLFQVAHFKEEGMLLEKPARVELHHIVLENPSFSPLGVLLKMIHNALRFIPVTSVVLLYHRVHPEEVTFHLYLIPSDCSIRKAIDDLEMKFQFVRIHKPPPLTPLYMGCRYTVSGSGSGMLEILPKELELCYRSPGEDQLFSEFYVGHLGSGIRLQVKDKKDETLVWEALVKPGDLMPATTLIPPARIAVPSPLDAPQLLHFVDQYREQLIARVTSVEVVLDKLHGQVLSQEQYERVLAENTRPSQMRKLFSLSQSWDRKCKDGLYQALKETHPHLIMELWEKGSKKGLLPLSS
Experiment: SPR; NLRP1 void (high MW) fraction

Kd: 113 nM
B1: His6-tev-DPP9 (enzyme)
chain: MATTGTPTADRGDAAATDDPAARFQVQKHSWDGLRSIIHGSRKYSGLIVNKAPHDFQFVQKTDESGPHSHRLYYLGMPYGSRENSLLYSEIPKKVRKEALLLLSWKQMLDHFQATPHHGVYSREEELLRERKRLGVFGITSYDFHSESGLFLFQASNSLFHCRDGGKNGFMVSPMKPLEIKTQCSGPRMDPKICPADPAFFSFINNSDLWVANIETGEERRLTFCHQGLSNVLDDPKSAGVATFVIQEEFDRFTGYWWCPTASWEGSEGLKTLRILYEEVDESEVEVIHVPSPALEERKTDSYRYPRTGSKNPKIALKLAEFQTDSQGKIVSTQEKELVQPFSSLFPKVEYIARAGWTRDGKYAWAMFLDRPQQWLQLVLLPPALFIPSTENEEQRLASARAVPRNVQPYVVYEEVTNVWINVHDIFYPFPQSEGEDELCFLRANECKTGFCHLYKVTAVLKSQGYDWSEPFSPGEDEFKCPIKEEIALTSGEWEVLARHGSKIWVNEETKLVYFQGTKDTPLEHHLYVVSYEAAGEIVRLTTPGFSHSCSMSQNFDMFVSHYSSVSTPPCVHVYKLSGPDDDPLHKQPRFWASMMEAASCPPDYVPPEIFHFHTRSDVRLYGMIYKPHALQPGKKHPTVLFVYGGPQVQLVNNSFKGIKYLRLNTLASLGYAVVVIDGRGSCQRGLRFEGALKNQMGQVEIEDQVEGLQFVAEKYGFIDLSRVAIHGWSYGGFLSLMGLIHKPQVFKVAIAGAPVTVWMAYDTGYTERYMDVPENNQHGYEAGSVALHVEKLPNEPNRLLILHGFLDENVHFFHTNFLVSQLIRAGKPYQLQIYPNERHSIRCPESGEHYEVTLLHFLQEYL
